Results on one molecule are retold here after patent EP3632934A1 (F. Hoffmann-La Roche AG, dated 2020).

This test deals with T1, human OX40 (Sino Biological Inc) (human, UniProt P43489 29-216).
T1 construct: Bought soluble protein used as SPR analyte; also called huOX40
T1 sequence: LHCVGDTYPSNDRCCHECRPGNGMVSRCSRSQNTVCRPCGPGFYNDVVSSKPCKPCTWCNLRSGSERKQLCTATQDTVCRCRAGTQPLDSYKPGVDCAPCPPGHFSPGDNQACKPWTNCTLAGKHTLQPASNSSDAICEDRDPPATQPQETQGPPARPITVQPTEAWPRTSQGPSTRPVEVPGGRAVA
Put plainly: SPR, Biacore; against parent 1A7.gr.1.

B1: 1A7.gr.SGDS (antibody, V domains shown)
VH: EVQLVQSGAEVKKPGASVKVSCKASGYTFTDSYMSWVRQAPGQGLEWIGDMYPDSGDSSYNQKFRERVTITRDTSTSTAYLELSSLRSEDTAVYYCVLAPRWYFSVWGQGTLVTVSS
VL: DIQMTQSPSSLSASVGDRVTITCRASQDISNYLNWYQQKPGKAPKLLIYYTSRLRSGVPSRFSGSGSGTDFTLTISSLQPEDFATYYCQQGHTLPPTFGQGTKVEIK
B1: the “fold loss of binding affinity against 1A7.gr.1” value worked out at 2 fold.
